The data set concerns the molecule itself. Nature of the data set: cross-linking.

B1: full-length rabies virus phosphoprotein (P), C-terminal His-tagged (natural protein)
chain: MSKIFVNPSAIRAGLADLEMAEETVDLINRNIEDNQAHLQGEPIEVDNLPEDMKRLHLDDEKSSNLGEMVRVGEGKYREDFQMDEGEDPNLLFQSYLDNVGVQIVRQMRSGERFLKIWSQTVEEIVSYVTVNFPNPPRRSSEDKSTQTTGRELKKETTSAFSQRESQPSKARMVAQVAPGPPALEWSATNEEDDLSVEAEIAHQIAESFSKKYKFPSRSSGIFLYNFEQLKMNLDDIVKEAKNVPGVTRLAHDGSKIPLRCVLGWVALANSKKFQLLVEADKLSKIMQDDLNRYTSC
With B1, the binding result is on record as “binds”.

The record behind these values is paper PMC7173060 (Journal of Molecular Biology, 2004).
